Results from patent US20190256588A1 (BEIJING HANMI PHARM, published 2019).

Columns and labels:
Test in all cases: ELISA, cytokine coated on plate at 1 µg/mL
recombinant human IL-21 = recombinant human IL-21 (human, UniProt Q9HBE4 32-162, limits assumed)
Method: (§1) Recombinant human IL-17A, IL-17B, IL-17C, IL-17D, IL-17E, IL-17F, IL-1, IL-2, IL-6, IL-8, IL-21, IL-22, IL-23, IFN-g and TNFα (purchased from Sino Biological Inc. or R&D systems) were coated on a 96-well high-absorbing ELISA plate with a carbonate buffer solution with pH 9.6, the coating concentration was 1 μg/mL, the coating amount was 100 μL per well, and the coating was carried ax 4° C. out overnight. The plate was washed five times with PBST and blocked with 300 μL/well of PBST containing 1% BSA and incubated at 25° C. for 1 hour. The plate was washed five times with PBST. […] The plate was washed five times with PBST. Then, horseradish peroxidase-labeled anti-human IgG antibody (Chemicon, Catalog Number AP309P) 1:2000 diluted in PBST containing 1% BSA was added, 100 μL was added to each well, incubated at 25° C. for 1 hour. The plate was washed five times with PBST. 100 μL/well of colorimetric substrate TMB was added and incubated at room temperature for 10 minutes. Color development was terminated by adding 100 μL/well of 1 M H₂SO₄. The absorbance at 450 nm was read on a microplate reader.
(§2) Recombinant human IL-17A, IL-17B, IL-17C, IL-17D, IL-17E, IL-17F, IL-1, IL-2, IL-6, IL-8, IL-21, IL-22, IL-23, IFN-g and TNFα (purchased from Sino Biological Inc. or R&D systems) were coated on a 96-well high-absorbing ELISA plate with a carbonate buffer solution with pH 9.6, the coating concentration was 1 μg/mL, the coating amount was 100 μL per well, and the coating was carried at 4° C. out overnight. Washed five times with PBST. Blocked with 300 μL/well of PBST containing 1% BSA and incubated at 25° C. for 1 hour. Washed five times with PBST.

recombinant human IL-17B = biological target: T1, recombinant human IL-17B (human, UniProt Q9UHF5 21-180)
T1 sequence (looked up): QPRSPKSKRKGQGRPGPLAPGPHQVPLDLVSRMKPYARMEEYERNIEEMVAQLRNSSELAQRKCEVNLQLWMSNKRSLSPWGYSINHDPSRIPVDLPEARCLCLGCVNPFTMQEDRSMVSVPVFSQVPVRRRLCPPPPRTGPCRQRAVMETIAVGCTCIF
Method: as §1, §2

recombinant human IL-17D = biological target: T2, recombinant human IL-17D (human, UniProt Q8TAD2 16-202, limits assumed)
T2 sequence (looked up): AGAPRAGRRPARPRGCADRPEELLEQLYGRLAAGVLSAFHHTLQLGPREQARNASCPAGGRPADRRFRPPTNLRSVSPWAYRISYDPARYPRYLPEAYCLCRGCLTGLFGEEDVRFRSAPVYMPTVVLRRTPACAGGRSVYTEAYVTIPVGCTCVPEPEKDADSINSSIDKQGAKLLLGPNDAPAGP
Method: as §1, §2

recombinant human IL-17F = biological target: T3, recombinant human IL-17F (human, UniProt Q96PD4 31-163)
T3 sequence (looked up): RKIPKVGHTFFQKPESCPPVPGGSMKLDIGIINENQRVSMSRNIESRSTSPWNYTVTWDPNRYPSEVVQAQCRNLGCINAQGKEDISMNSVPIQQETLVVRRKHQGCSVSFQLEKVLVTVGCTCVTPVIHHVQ
Method: as §1, §2

recombinant human IL-6 = recombinant human IL-6 (human, UniProt P05231 30-212)
Method: as §1, §2

recombinant human IL-23 = biological target: T4, recombinant human IL-23 (human, UniProt Q9NPF7 20-189; P29460 23-328)
T4 sequence (looked up) 1: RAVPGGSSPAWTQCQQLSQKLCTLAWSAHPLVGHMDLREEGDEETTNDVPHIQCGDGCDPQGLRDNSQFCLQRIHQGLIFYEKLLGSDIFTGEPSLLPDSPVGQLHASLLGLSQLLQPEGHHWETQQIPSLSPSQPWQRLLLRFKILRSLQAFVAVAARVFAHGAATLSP
T4 sequence (looked up) 2: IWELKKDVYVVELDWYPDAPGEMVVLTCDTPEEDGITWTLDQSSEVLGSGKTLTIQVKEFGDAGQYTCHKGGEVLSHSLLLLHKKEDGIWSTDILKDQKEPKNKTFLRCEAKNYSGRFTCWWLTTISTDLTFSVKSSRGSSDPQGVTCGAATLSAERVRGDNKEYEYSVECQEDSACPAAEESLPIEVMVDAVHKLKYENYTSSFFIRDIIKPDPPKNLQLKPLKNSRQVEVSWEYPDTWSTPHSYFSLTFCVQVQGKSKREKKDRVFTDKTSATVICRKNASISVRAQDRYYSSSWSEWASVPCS
Method: as §1, §2

recombinant human IFN-g = biological target: T5, recombinant human IFN-g (human, UniProt P01579 24-166, limits assumed)
T5 sequence (looked up): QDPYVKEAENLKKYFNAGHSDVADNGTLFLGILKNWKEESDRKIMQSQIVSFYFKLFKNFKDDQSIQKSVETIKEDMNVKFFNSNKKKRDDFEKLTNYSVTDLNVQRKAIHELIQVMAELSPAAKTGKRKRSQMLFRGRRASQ
Method: as §1, §2

recombinant human TNFα = recombinant human TNFα (human, UniProt P01375 77-233)
Method: as §1, §2

recombinant human IL-17C = biological target: T6, recombinant human IL-17C (human, UniProt Q9P0M4 19-197)
T6 sequence (looked up): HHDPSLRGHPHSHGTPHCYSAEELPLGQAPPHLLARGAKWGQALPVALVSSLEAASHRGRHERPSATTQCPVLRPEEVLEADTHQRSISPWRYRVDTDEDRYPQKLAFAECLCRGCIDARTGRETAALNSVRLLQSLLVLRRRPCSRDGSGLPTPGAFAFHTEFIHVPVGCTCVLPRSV
Method: as §1, §2

Measured: binding result

Chain of recombinant human TNFα (P01375 77-233 limits assumed): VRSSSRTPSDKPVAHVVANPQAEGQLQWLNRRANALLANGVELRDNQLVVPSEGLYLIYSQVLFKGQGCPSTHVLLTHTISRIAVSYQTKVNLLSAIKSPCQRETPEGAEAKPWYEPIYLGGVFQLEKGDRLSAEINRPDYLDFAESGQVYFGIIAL
Chain of recombinant human IL-6 (P05231 30-212 limits assumed): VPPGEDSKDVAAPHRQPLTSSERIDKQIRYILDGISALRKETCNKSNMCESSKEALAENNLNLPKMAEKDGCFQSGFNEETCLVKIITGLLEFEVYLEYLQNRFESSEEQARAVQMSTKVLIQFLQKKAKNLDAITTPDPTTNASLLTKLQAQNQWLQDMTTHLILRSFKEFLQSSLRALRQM
Chain of recombinant human IL-21 (Q9HBE4 32-162 limits assumed): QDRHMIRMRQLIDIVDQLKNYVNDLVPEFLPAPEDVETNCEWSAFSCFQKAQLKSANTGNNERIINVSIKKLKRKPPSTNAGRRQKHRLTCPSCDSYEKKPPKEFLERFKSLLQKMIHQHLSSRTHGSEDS

B1: anti-human IL-17A chimeric monoclonal antibody (antibody, human IgG1, kappa, V domains shown)
VH: DVQVQESGPGLVKPSQSLSLTCTVTGNSITSYYAWNWIRQFPGNKLEWMGYITYSGTTSYNPSLKSRISITRDTSKNQFFLQLNSVTTEDTATYYCAREEYDDIYAVDYWGQGTSVTVSS
VL: IIVMTQTPLSLPVSLGDQASISCRSSQSLVHSNGNTYLHWYLQKPGQSPKLLIYKVYNRFSGVPDRFSGSGSGTDFTLKISRVEAEDLGVYFCSQSTHFPTFGGGTKLEIKR
notes: expressed in 293F cells; also called Anti-human IL-17A Chimeric Antibody; chimeric anti-human IL-17A monoclonal antibody
no binding: recombinant human IL-21 | recombinant human IL-17B | recombinant human IL-17D | recombinant human IL-17F | recombinant human IL-6 | recombinant human IL-23 | recombinant human IFN-g | recombinant human TNFα | recombinant human IL-17C
